Test results as given in the supplement of paper PMC9876800.

Test system: peptide library, one residue held at a place counted from the S/T acceptor
Assay: relative phosphorylation of the sub-library (ratio to the mean residue at this position); higher = residue favoured
How it was run: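 Relative sub-library phosphorylation, a ratio to the mean residue at that position, was obtained by phosphorimaging and densitometry of spots on streptavidin membranes. Before capture, purified recombinant kinases were incubated for 90 min under kinase-specific conditions with 50 μM biotinylated degenerate peptide sub-libraries and 50 μM ATP spiked with γ-32P-ATP. Each sub-library fixed one residue at one position around a central Ser/Thr.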

Sequence of CDK4, construct: Full length, human (P11802 whole entry, looked up): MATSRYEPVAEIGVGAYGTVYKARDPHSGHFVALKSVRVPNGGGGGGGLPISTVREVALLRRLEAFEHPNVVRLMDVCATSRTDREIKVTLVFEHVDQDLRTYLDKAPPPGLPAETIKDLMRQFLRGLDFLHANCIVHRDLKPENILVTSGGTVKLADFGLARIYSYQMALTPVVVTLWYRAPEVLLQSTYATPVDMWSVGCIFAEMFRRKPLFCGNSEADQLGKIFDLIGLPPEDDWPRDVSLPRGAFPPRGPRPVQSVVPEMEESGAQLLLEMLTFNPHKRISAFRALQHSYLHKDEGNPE
Sequence of BRSK1, construct: Full length, human (Q8TDC3 whole entry, looked up): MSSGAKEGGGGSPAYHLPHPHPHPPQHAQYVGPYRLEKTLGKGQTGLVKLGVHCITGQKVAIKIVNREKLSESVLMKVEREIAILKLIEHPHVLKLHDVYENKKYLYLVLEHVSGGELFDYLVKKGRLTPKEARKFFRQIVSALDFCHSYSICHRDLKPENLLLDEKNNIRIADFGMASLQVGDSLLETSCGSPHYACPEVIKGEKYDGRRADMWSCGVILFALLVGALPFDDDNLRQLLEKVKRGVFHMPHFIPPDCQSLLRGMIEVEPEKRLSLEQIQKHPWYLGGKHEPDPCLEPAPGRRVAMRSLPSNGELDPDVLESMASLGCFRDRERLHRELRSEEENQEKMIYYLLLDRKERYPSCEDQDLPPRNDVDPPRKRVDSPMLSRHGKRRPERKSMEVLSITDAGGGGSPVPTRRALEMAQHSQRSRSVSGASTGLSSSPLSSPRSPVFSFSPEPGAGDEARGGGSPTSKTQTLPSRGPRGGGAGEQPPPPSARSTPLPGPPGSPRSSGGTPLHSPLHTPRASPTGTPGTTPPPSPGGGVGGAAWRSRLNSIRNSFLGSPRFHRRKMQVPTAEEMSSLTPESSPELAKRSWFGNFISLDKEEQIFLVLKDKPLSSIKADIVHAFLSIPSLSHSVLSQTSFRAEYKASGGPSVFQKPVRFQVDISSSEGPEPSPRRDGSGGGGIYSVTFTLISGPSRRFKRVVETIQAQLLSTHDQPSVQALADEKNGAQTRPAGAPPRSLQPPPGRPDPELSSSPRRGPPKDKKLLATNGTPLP
Sequence of CAMK2B, construct: Full length, human (Q13554 whole entry, looked up): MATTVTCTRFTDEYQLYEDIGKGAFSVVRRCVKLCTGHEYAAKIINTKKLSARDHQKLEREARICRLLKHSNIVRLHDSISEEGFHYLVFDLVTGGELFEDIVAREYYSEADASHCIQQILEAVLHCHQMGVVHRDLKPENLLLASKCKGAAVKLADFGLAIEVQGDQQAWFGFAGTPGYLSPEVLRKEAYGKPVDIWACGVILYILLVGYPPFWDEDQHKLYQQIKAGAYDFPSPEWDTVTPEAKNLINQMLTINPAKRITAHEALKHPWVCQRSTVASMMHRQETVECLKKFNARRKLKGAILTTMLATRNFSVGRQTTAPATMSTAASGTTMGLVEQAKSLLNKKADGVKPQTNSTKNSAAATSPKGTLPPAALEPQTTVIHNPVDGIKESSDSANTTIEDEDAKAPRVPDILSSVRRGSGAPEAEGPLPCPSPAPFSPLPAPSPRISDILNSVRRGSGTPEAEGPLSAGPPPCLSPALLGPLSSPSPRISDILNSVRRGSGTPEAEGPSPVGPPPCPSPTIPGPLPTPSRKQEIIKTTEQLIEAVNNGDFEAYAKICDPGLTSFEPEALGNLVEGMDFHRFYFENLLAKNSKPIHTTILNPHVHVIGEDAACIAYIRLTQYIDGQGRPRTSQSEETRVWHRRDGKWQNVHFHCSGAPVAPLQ

BRSK1, construct: Full length, human (from UniProt Q8TDC3)
relative phosphorylation
Settings | at +1 | at +2 | at +3 | at +4 | at -1 | at -2 | at -3 | at -4 | at -5
A fixed | 0.673 | 0.575 | 0.697 | 0.51 | 1.03 | 2.4 | 0.781 | 1.28 | 1.05
D fixed | 0.631 | 0.801 | 2.83 | 0.644 | 0.813 | 0.773 | 0.334 | 0.552 | 0.451
E fixed | 0.649 | 0.672 | 0.947 | 0.556 | 0.748 | 0.6 | 0.374 | 0.678 | 0.494
F fixed | 1.67 | 1.41 | 1.4 | 1.09 | 0.72 | 1.04 | 0.522 | 0.648 | 1.12
G fixed | 0.458 | 0.349 | 0.67 | 0.572 | 1.24 | 1.12 | 0.616 | 1.29 | 0.961
H fixed | 0.966 | 1.64 | 1.02 | 0.623 | 1.08 | 1 | 1.1 | 1.19 | 0.765
I fixed | 0.636 | 0.435 | 0.353 | 3.13 | 0.494 | 0.534 | 0.235 | 0.422 | 0.943
K fixed | 0.703 | 0.256 | 0.669 | 0.597 | 1.24 | 1.25 | 2.41 | 2.03 | 1.25
L fixed | 1.12 | 0.672 | 0.529 | 2.95 | 0.951 | 0.476 | 0.32 | 0.56 | 1.09
M fixed | 3.06 | 0.841 | 0.614 | 1.67 | 1.17 | 0.627 | 0.546 | 0.829 | 1.55
N fixed | 1.08 | 1.1 | 2.82 | 0.835 | 0.94 | 0.902 | 0.596 | 0.699 | 0.637
P fixed | 0.306 | 0.467 | 0.32 | 0.628 | 1.53 | 0.735 | 0.673 | 1.48 | 0.939
Q fixed | 1.18 | 1.13 | 1.15 | 0.714 | 0.996 | 0.734 | 0.755 | 0.985 | 0.829
R fixed | 0.985 | 0.357 | 0.729 | 0.575 | 1.34 | 1.7 | 6.17 | 2.19 | 2.01
V fixed | 0.73 | 0.381 | 0.405 | 0.861 | 0.75 | 1.01 | 0.311 | 0.678 | 0.857
W fixed | 0.787 | 2.02 | 0.804 | 0.59 | 0.696 | 1.12 | 0.667 | 0.774 | 0.911
Y fixed | 1.37 | 3.9 | 1.04 | 0.465 | 1.26 | 0.984 | 0.586 | 0.726 | 1.14
pThr fixed | 1.81 | 0.59 | 0.438 | 0.686 | 0.407 | 0.465 | 0.392 | 0.723 | 0.544
pTyr fixed | 0.633 | 0.948 | 0.928 | 0.475 | 1.75 | 0.606 | 0.657 | 0.678 | 0.776

CAMK2B, construct: Full length, human (from UniProt Q13554)
relative phosphorylation
Settings | at +1 | at +2 | at +3 | at +4 | at -1 | at -2 | at -3 | at -4 | at -5
A fixed | 0.454 | 0.673 | 1.07 | 0.895 | 0.744 | 1.02 | 0.589 | 0.903 | 0.883
D fixed | 0.842 | 4.46 | 2.37 | 2.5 | 1.57 | 0.86 | 0.527 | 0.849 | 0.702
E fixed | 1.45 | 3.53 | 2.59 | 2.45 | 1.32 | 1.05 | 0.627 | 1.21 | 0.659
F fixed | 2.27 | 0.366 | 0.6 | 0.619 | 0.736 | 0.523 | 0.58 | 0.852 | 1.19
G fixed | 0.573 | 0.828 | 1.26 | 1.09 | 1.06 | 1.46 | 0.774 | 1.04 | 0.836
H fixed | 0.758 | 0.895 | 0.881 | 0.893 | 1.15 | 1.1 | 1.03 | 1.04 | 0.803
I fixed | 1.52 | 0.405 | 0.575 | 0.529 | 0.482 | 0.336 | 0.325 | 0.729 | 1.08
K fixed | 0.457 | 0.32 | 0.489 | 0.459 | 1.01 | 0.848 | 2.02 | 1.29 | 0.791
L fixed | 1.1 | 0.332 | 0.729 | 0.506 | 0.738 | 0.367 | 0.382 | 0.707 | 1.71
M fixed | 1.52 | 0.426 | 0.648 | 0.612 | 0.948 | 1.01 | 0.652 | 1.07 | 1.12
N fixed | 0.837 | 1.3 | 1.13 | 1.05 | 1.48 | 1.38 | 0.929 | 0.983 | 0.749
P fixed | 0.295 | 0.525 | 0.932 | 1.43 | 1.45 | 0.471 | 1.11 | 1.03 | 1.05
Q fixed | 1.43 | 1.1 | 1.14 | 1.02 | 1.41 | 3.49 | 1.22 | 1.14 | 0.893
R fixed | 0.566 | 0.381 | 0.438 | 0.458 | 0.795 | 1.06 | 4.44 | 1.3 | 1.16
V fixed | 1.42 | 0.467 | 0.62 | 0.638 | 0.592 | 0.388 | 0.365 | 0.815 | 1.2
W fixed | 0.534 | 0.397 | 0.701 | 0.983 | 0.486 | 0.992 | 0.758 | 0.958 | 1.16
Y fixed | 0.988 | 0.593 | 0.827 | 0.882 | 1.03 | 0.651 | 0.679 | 1.09 | 1.03
pThr fixed | 1.72 | 1.39 | 1.97 | 3.94 | 0.586 | 0.581 | 0.708 | 0.806 | 0.783
pTyr fixed | 1.76 | 4.63 | 1.88 | 2.72 | 1.75 | 0.651 | 0.664 | 0.835 | 0.902

CDC42BPA, construct: aa1-473, human (from UniProt Q5VT25)
relative phosphorylation
Settings | at +1 | at +2 | at +3 | at +4 | at -1 | at -2 | at -3 | at -4 | at -5
A fixed | 0.571 | 0.98 | 0.605 | 0.722 | 0.552 | 0.403 | 0.476 | 0.689 | 0.776
D fixed | 0.475 | 0.764 | 0.723 | 0.799 | 0.668 | 0.306 | 0.342 | 0.53 | 0.483
E fixed | 0.435 | 0.379 | 0.701 | 0.719 | 0.436 | 0.226 | 0.23 | 0.498 | 0.321
F fixed | 0.802 | 1.2 | 1.15 | 1.1 | 0.645 | 0.519 | 0.424 | 0.758 | 0.814
G fixed | 0.849 | 1.06 | 1.32 | 0.933 | 0.984 | 0.431 | 0.442 | 0.765 | 0.629
H fixed | 0.961 | 1.06 | 1.27 | 1.17 | 1.27 | 1.25 | 1.3 | 1.22 | 1.04
I fixed | 1.61 | 1.56 | 0.911 | 0.783 | 0.453 | 0.267 | 0.295 | 0.651 | 0.688
K fixed | 0.961 | 1.01 | 1.56 | 1.21 | 2.71 | 2.5 | 2.6 | 2.28 | 3.39
L fixed | 1.79 | 1.52 | 0.789 | 0.94 | 1.33 | 0.416 | 0.329 | 0.709 | 0.771
M fixed | 1.45 | 0.918 | 0.745 | 0.872 | 1.01 | 0.507 | 0.354 | 0.803 | 0.632
N fixed | 1.84 | 0.88 | 0.914 | 1.15 | 1.15 | 0.855 | 0.534 | 0.893 | 0.688
P fixed | 0.35 | 1.1 | 0.983 | 1.2 | 1.28 | 0.482 | 0.496 | 0.995 | 0.666
Q fixed | 1.18 | 0.681 | 1.3 | 1.06 | 1.13 | 0.973 | 0.75 | 0.847 | 0.911
R fixed | 1.17 | 0.868 | 1.01 | 1.04 | 1.45 | 5.97 | 7.05 | 3.1 | 2.99
V fixed | 0.898 | 1.08 | 0.702 | 0.777 | 0.529 | 0.292 | 0.282 | 0.641 | 0.586
W fixed | 0.867 | 0.952 | 1.12 | 1.53 | 0.605 | 0.852 | 0.622 | 0.902 | 0.809
Y fixed | 0.786 | 1.01 | 1.18 | 0.99 | 0.798 | 0.744 | 0.469 | 0.718 | 0.814
pThr fixed | 0.636 | 0.97 | 0.873 | 1.38 | 0.283 | 0.304 | 0.369 | 0.547 | 0.552
pTyr fixed | 1.24 | 0.795 | 0.785 | 1.13 | 0.396 | 0.353 | 0.378 | 0.441 | 0.391

CDK4, construct: Full length, human (from UniProt P11802)
relative phosphorylation
Settings | at +1 | at +2 | at +3 | at +4 | at -1 | at -2 | at -3 | at -4 | at -5
A fixed | 0.244 | 0.682 | 0.688 | 0.766 | 0.896 | 0.85 | 1.04 | 1 | 1.02
D fixed | 0.173 | 0.416 | 0.335 | 0.58 | 0.421 | 0.228 | 0.387 | 0.667 | 0.799
E fixed | 0.133 | 0.337 | 0.246 | 0.526 | 0.504 | 0.298 | 0.59 | 0.844 | 0.796
F fixed | 0.237 | 0.736 | 0.778 | 0.851 | 0.96 | 1.06 | 0.741 | 0.852 | 0.797
G fixed | 0.746 | 0.88 | 0.82 | 1.11 | 1.03 | 0.596 | 1.4 | 1.18 | 1.28
H fixed | 0.266 | 1.32 | 1.05 | 1.38 | 1.02 | 1.04 | 1.13 | 1.09 | 1.16
I fixed | 0.278 | 1.16 | 0.428 | 0.855 | 0.531 | 1.01 | 0.915 | 0.838 | 0.917
K fixed | 0.29 | 1.55 | 1.86 | 1.2 | 1.29 | 0.798 | 1.21 | 1.23 | 1.4
L fixed | 0.364 | 0.967 | 0.412 | 0.587 | 1.28 | 1.41 | 0.874 | 0.808 | 0.752
M fixed | 0.267 | 1.03 | 0.566 | 0.909 | 1.46 | 1.28 | 0.796 | 0.827 | 0.813
N fixed | 0.258 | 1.27 | 0.739 | 0.976 | 0.731 | 0.948 | 0.856 | 1.16 | 1.08
P fixed | 12.4 | 0.481 | 0.92 | 0.848 | 0.94 | 2.52 | 1.14 | 1.08 | 1.14
Q fixed | 0.275 | 0.789 | 0.652 | 0.801 | 1.27 | 0.76 | 0.704 | 0.832 | 0.822
R fixed | 0.324 | 2.59 | 4.48 | 2.2 | 1.9 | 1.39 | 2.5 | 1.52 | 1.6
V fixed | 0.302 | 1.01 | 0.417 | 0.636 | 0.624 | 0.891 | 0.889 | 0.658 | 0.68
W fixed | 0.239 | 0.624 | 1.54 | 1.42 | 0.996 | 0.88 | 0.87 | 1.28 | 0.782
Y fixed | 0.222 | 1.16 | 1.07 | 1.36 | 1.13 | 1.05 | 0.957 | 1.13 | 1.15
pThr fixed | 0.323 | 0.406 | 0.361 | 0.422 | 0.237 | 0.382 | 0.592 | 0.644 | 0.77
pTyr fixed | 0.482 | 0.391 | 0.503 | 0.432 | 0.357 | 0.356 | 0.592 | 0.544 | 0.934
